From patent US20200392227A1 (LYVGEN BIOPHARMA, published 2020)
Numbering of substitutions follows the chain as printed. Where two headings read alike, the source gives them in different places.

How the values were obtained:
[1] = target: T1, human FcRI protein (MednaBio, E1031) (human, UniProt P12314 16-288, limits assumed); assay: BLI
T1 construct: Bought; loaded on anti-penta-HIS biosensors; also called FcγRI
In short: (§1)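 On an Octet Red96 System, anti-penta-HIS biosensors loaded with commercial human Fc receptor proteins were dipped into test IgG diluted 1:3 over 8 points from 300 nM. Fcγ receptor runs used pH 7.2 and FcRn runs used pH 6. Global fitting of these biolayer interferometry data gave the values for Kd, kon and koff, using a 1:1 binding model.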

[2] = target: T2, human FcRIIA protein (MednaBio, E1033) (human, UniProt P12318 34-218, limits assumed); assay: BLI
T2 construct: Bought; also called FcγRIIA
T2 sequence (looked up): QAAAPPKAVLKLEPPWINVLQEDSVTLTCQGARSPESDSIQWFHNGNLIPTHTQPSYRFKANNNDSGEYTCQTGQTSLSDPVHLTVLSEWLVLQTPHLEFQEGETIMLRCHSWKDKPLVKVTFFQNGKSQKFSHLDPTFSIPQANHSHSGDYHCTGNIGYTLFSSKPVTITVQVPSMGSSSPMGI
In short: as §1

[3] = target: T3, human FcRIIB/C protein (MednaBio, E1034) (human, UniProt P31994 43-217, limits assumed); assay: BLI
T3 construct: Bought as FcRIIB/C; also called FcγRIIB; CD32B
T3 sequence (looked up): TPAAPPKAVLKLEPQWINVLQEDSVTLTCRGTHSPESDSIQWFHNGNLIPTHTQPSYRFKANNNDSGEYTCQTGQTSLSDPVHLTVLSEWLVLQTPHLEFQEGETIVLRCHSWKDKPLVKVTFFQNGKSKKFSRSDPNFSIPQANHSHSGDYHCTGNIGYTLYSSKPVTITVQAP
In short: as §1

[4] = target: T4, human FcRIIIA-F158 protein (MednaBio, E1036) (human, UniProt P08637 17-208); assay: BLI
T4 construct: Bought; also called FcγRIIIA(F)
In short: as §1

[5] = target: T5, human FcRIIIA-V158 protein (MednaBio, E1035) (human, UniProt P08637 17-208); assay: BLI
T5 construct: Bought; also called FcγRIIIA(V); FcgRIIIA(V)
In short: as §1

[6] = target: T6, human FcRIIIB protein (MednaBio, E1037) (human, UniProt O75015 17-200); assay: BLI
T6 construct: Bought; also called FcγRIIIB; FcgRIIIB
In short: as §1

[7] = target: T7, human FcRn protein (MednaBio, E1032) (human, UniProt P55899 24-297; P61769 21-119); assay: BLI
T7 construct: Bought; assays at pH 6
In short: as §1

[8] = target: T8, human FcγRIIC expressed on CHO cells (human, UniProt P31995 43-323); assay: FACS, CHO cells expressing FcγRIIC
T8 construct: whole, on cells
T8 sequence (looked up): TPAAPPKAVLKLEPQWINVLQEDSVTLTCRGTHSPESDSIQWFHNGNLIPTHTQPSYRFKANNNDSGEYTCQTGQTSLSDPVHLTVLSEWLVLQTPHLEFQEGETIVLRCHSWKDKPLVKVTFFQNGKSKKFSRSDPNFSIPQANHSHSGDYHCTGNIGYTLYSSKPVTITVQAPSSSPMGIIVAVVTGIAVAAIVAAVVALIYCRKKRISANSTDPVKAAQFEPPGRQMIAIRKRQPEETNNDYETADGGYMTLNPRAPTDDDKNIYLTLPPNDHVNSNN
Protocol: For FACS analysis of the IgG mutants' binding to different FcγRs, FcγR overexpressing CHO cells were harvested using trypsin-EDTA and were suspended in cold staining buffer (3% BSA in PBS). Test IgG mutants, which were diluted in staining buffer, were added into the cells. The mixture was incubated 4° C. for 2 hours, and then washed twice with cold staining buffer and re-suspended in PE-labeled anti-human IgG followed by incubation at 4° C. for 2 hours. The mixture was washed twice with staining buffer and re-suspended in 2% PFA in PBS for FACS.

[9] = target: T1, human FcRI protein (MednaBio, E1031); assay: BLI; remark: listed apart in the source
In short: as §1

[10] = target: T2, human FcRIIA protein (MednaBio, E1033); assay: BLI; remark: listed apart in the source
In short: as §1

[11] = target: T3, human FcRIIB/C protein (MednaBio, E1034); assay: BLI; remark: listed apart in the source
In short: as §1

[12] = target: T7, human FcRn protein (MednaBio, E1032); assay: BLI; remark: listed apart in the source
In short: as §1

T7 sequence (P55899 24-297 limits assumed, form in doubt, chain 1 of 2): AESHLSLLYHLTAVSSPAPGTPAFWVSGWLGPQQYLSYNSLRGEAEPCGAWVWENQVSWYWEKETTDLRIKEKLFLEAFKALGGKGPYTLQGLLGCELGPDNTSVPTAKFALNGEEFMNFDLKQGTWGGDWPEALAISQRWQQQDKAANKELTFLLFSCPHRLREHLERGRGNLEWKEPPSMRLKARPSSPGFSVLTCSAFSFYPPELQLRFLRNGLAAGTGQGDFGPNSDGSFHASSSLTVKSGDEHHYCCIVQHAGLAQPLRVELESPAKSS
T7 sequence (P61769 21-119 limits assumed, form in doubt, chain 2 of 2): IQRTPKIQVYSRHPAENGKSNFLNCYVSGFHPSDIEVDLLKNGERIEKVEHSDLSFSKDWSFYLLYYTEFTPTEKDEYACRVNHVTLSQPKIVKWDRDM
T1 sequence (P12314 16-288 limits assumed): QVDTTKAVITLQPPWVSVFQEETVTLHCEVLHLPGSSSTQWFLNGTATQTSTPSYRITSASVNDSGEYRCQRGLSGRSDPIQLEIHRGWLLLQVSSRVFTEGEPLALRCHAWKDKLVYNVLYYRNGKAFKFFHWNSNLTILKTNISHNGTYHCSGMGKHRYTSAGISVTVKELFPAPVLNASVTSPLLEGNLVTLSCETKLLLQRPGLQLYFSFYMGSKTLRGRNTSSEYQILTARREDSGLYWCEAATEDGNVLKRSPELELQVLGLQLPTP
T6 sequence (O75015 17-200 limits assumed): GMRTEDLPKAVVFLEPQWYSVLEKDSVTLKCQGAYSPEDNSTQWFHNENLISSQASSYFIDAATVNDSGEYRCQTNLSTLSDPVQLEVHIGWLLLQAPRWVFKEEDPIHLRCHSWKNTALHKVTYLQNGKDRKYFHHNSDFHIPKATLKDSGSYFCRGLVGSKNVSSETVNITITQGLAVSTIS
T4 sequence (P08637 17-208 limits assumed): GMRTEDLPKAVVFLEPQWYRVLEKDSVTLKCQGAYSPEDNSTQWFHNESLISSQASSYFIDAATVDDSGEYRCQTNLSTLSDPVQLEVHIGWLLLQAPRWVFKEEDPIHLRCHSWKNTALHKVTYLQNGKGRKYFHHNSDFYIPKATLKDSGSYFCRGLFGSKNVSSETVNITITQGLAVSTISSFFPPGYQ
T5 sequence (P08637 17-208 F176V): as the sequence (P08637 17-208 limits assumed) above, with F160V counted along it

B1: anti-CD137 IgG1 with Fc variant G1m19 (antibody)
heavy: EVQLVQSGAEVKKPGESLRISCKGSGYSFSTYWISWVRQMPGKGLEWMGKIYPGDSYTNYSPSFQGQVTISADKSISTAYLQWSSLKASDTAMYYCARGYGIFDYWGQGTLVTVSSASTKGPSVFPLAPSSKSTSGGTAALGCLVKDYFPEPVTVSWNSGALTSGVHTFPAVLQSSGLYSLSSVVTVPSSSLGTQTYICNVNHKPSNTKVDKKVEPKSCDKTHTCPPCPAPELLSVFLFPPKPKDTLMISRTPEVTCVVVDVEHEDPEVKFNWYVDGVEVHNAKTKPREEQYNSTYRVVSVLTVLHQDWLNGKEYKCKVSNKAFPAPIEKTISKAKGQPREPQVYTLPPSREEMTKNQVSLTCLVKGFYPSDIAVEWESNGQPENNYKTTPPVLDSDGSFFLYSKLTVDKSRWQQGNVFSCSVMHEALHNHYTQKSLSLSPGK
light: SYELTQPPSVSVSPGQTASITCSGDNIGDQYAHWYQQKPGQSPVLVIYQDKNRPSGIPERFSGSNSGNTATLTISGTQAMDEADYYCATYTGFGSLAVFGGGTKLTVLGQPKAAPSVTLFPPSSEELQANKATLVCLISDFYPGAVTVAWKADSSPVKAGVETTTPSKQSNNKYAASSYLSLTPEQWKSHRSYSCQVTHEGSTVEKTVAPTECS
notes: copies: 2 + 2
Kd [1]: 120 nM
koff [1]: 0.086 s⁻¹
kon [1]: 710000 M⁻¹ s⁻¹
Kd [2]: 81 nM
koff [2]: 0.019 s⁻¹
kon [2]: 240000 M⁻¹ s⁻¹
Kd [3]: 110 nM
koff [3]: 0.028 s⁻¹
kon [3]: 260000 M⁻¹ s⁻¹
binding result [4]: no binding (tested: 300 nM)
binding result [5]: no binding (tested: 300 nM)
binding result [6]: no binding (tested: 300 nM)
Kd [7]: 13.4 nM
koff [7]: 0.0103 s⁻¹
kon [7]: 770000 M⁻¹ s⁻¹
binding result [8]: binds

B2: anti-CD137 IgG4 with Fc variant G4m29 (antibody)
heavy: EVQLVQSGAEVKKPGESLRISCKGSGYSFSTYWISWVRQMPGKGLEWMGKIYPGDSYTNYSPSFQGQVTISADKSISTAYLQWSSLKASDTAMYYCARGYGIFDYWGQGTLVTVSSASTKGPSVFPLAPCSRSTSESTAALGCLVKDYFPEPVTVSWNSGALTSGVHTFPAVLQSSGLYSLSSVVTVPSSSLGTKTYTCNVDHKPSNTKVDKRVESKYGPPCPPCPAPEFLGPSVFLFPPKPKDTLMISRTPEVTCVVVDVEQEDPEVQFNWYVDGVEVHNAKTKPREEQFNSTYRVVSVLTVLHQDWLNGKEYKCKVSNKGFPSSIEKTISKAKGQPREPQVYTLPPSQEEMTKNQVSLTCLVKGFYPSDIAVEWESNGQPENNYKTTPPVLDSDGSFFLYSRLTVDKSRWQEGNVFSCSVMHEALHNHYTQKSLSLSLGK
light: B1 light
notes: copies: 2 + 2
Kd [9]: 44 nM
koff [9]: 0.023 s⁻¹
kon [9]: 520000 M⁻¹ s⁻¹
Kd [10]: 260 nM
koff [10]: 0.027 s⁻¹
kon [10]: 100000 M⁻¹ s⁻¹
Kd [11]: 78 nM
koff [11]: 0.013 s⁻¹
kon [11]: 170000 M⁻¹ s⁻¹
Kd [12]: 23 nM
koff [12]: 0.013 s⁻¹
kon [12]: 560000 M⁻¹ s⁻¹
binding result [8]: binds

B3: anti-CD137 IgG4 with Fc variant G4m28 (antibody)
heavy: B2 heavy with E262S
light: B1 light
notes: copies: 2 + 2
Kd [9]: 56 nM
koff [9]: 0.027 s⁻¹
kon [9]: 490000 M⁻¹ s⁻¹
Kd [10]: 1800 nM
koff [10]: 0.055 s⁻¹
kon [10]: 31000 M⁻¹ s⁻¹
Kd [11]: 180 nM
koff [11]: 0.034 s⁻¹
kon [11]: 190000 M⁻¹ s⁻¹
Kd [12]: 20 nM
koff [12]: 0.012 s⁻¹
kon [12]: 580000 M⁻¹ s⁻¹
binding result [8]: binds
